Assay results taken from US10456451B2, “Protease-resistant mutants of stromal cell derived factor-1 in the repair of tissue damage” (Mesoblast International Sàrl, priority 2010, dated 2019).

Molecular target: T1, MMP-2 (Homo sapiens, UniProt P08253)
T1 construct: purchased R&D Systems
T1 sequence (P08253 110-660): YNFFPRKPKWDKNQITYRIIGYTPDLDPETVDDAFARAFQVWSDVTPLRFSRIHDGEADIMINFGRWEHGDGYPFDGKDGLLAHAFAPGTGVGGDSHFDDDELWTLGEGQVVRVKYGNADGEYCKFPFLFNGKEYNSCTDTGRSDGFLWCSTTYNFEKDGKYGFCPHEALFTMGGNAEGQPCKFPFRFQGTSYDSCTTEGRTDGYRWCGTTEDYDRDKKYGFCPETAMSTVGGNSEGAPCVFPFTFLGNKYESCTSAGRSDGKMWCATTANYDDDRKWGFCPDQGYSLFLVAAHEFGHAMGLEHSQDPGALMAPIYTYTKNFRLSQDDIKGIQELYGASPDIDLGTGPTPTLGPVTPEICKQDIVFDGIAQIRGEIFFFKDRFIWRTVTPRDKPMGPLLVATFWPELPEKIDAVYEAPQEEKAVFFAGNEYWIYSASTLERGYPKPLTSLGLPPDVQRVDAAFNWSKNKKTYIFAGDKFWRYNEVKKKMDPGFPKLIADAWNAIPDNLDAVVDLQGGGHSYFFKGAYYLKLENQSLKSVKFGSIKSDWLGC
Assay: MMP-2 cleavage of Sumo fusion proteins, SDS-PAGE
Format: biochemical
Method: Human recombinant MMP-2 (R&D Systems) was activated for 1 hour with 4-aminophenylmercuric acetate (APMA, 1 mM) at 37° C. 4 μg of Sumo-SSDF-1-RAD or Sumo-SSDF-1(S4V)-RAD was incubated for 1 hour to 48 hours at 21° C. with 50 ng of activated MMP-2 in TCNB buffer (50 mM Tris, pH 7.5, 10 mM CaCl2, 150 mM NaCl, 0.05% Brij-35). Sample loading buffer (Invitrogen) and 2-mercaptoethanol (0.5 M, final concentration) were added, and samples were boiled for 5 minutes and run on a 10% Bis-Tris gel. Proteins used for this experiment were obtained after cation-exchange chromatography, but were neither cleaved by Sumo-protease nor purified by RPC-HPLC.

rate of cleavage lower than SDF-1: at least 48 times
Substance: SDF-1(S4V): SDF-1 with Ser→Val at position 4, SEQ ID NO:65
